These results are taken from PMC10470521, “Structural basis of a bi-functional malonyl-CoA reductase (MCR) from the photosynthetic green non-sulfur bacterium Roseiflexus castenholzii” (mBio, 2023).

Substrate in the series “purified protein”: CC(C)(COP(=O)(O)OP(=O)(O)OC[C@H]1O[C@@H](n2cnc3c(N)ncnc32)[C@H](O)[C@@H]1OP(=O)(O)O)[C@@H](O)C(=O)NCCC(=O)NCCSC(=O)CC(=O)O
Briefly: purified protein. It is filed as biochemical, Roseiflexus castenholzii. The conditions noted are these: 0.4 mM NADPH, 5 mM MgCl2, 100 mM Tris-HCl pH 8.0, 150 mM NaCl, 50°C, apparent, overall two-step reduction.

Series [1] concerns the molecule itself. In words: SEC; gel filtration on HiLoad 16/600 Superdex 200PG; 25 mM Tris-HCl pH 8.0, 150 mM NaCl.
Series [2] deals with the molecule itself. Briefly: crystal structure; RfxMCR-N with NADP+ and MSA; 1 M sodium malonate pH 5.0, 0.1 M sodium acetate pH 4.5, 3% PEG 20,000, 16°C; P6(5)22, one monomer in the asymmetric unit, dimer by crystal packing; 2.0 Å.

Numbering of substitutions follows the chain as printed. Names and notes keep the numbering of the source.

B1: full-length malonyl-CoA reductase from Roseiflexus castenholzii (RfxMCR) (enzyme, Roseiflexus castenholzii DSM 13941, UniProt A7NN59 1-1229, looked up)
chain: MSTVRRLEGKVALITGGAGNIGEVITRRFLAEGATVVITGRNAEKLAVYRRRLIDEERVAPERVVALRMDGSDIAQVRAGVAQIVHGGTDVPIPLHRIDILVNNAGSAGPRRRLVDIPLEPSEVQPPDSETLAQAVGNLVGITWNLTRAAAPHMPSGSSVINISTIFSRTDYYGRIAYVAPKAALNALSDGLARELGVRGIRVNTIYPGPIESERIYTMFQAMDALKGQPEGDTASGFLRMMRLSRIDQNGEVVKRFPSPVDVANTAVFLASDESAAFTGHAFEVTHGMEVPTESRTTFVSRPGLRSVDATGKVILICAGDQVDDAVALADTLRSCRATVVIGFRDPRALEKASVLLREPRHALAADMYGRPTMTAEARLVRLDPLDPRAAAQTLEQIHAELGAIHHAVVLPGQSRHAPSASLIEVDDQVVERFLHQELVGTIALARELARFWEEYPSGSSMHRVLFVSNPDDQQGNQYSHILRAAVEQLVRVWRHESEYDSVNPAHQQEGQSSAAVWANQLIRYVNNEMANLDFTCAWVAKLLGSDRRIAEINLYLPEEIVGTIGVHNPGFGWAESLFGLHMGKVALITGGSAGIGGQIGRLLALSGAHVMLAARNADQLEQMRASIVREVRDASYPDAESRVAIFPGSDVSDIDGLERLVNHTVRVFGKVDYLINNAGIAGAEEMVIDMPVDAWRHTLRANLISNYALLRRLAPQMKAAGGAYVLNVSSYFGGEKYVAIPYPNRSDYAVSKAGQRAMVESLARFLGPEIQINAIAPGPVEGERLKGAGSRPGLFMRRARLILENKRLNEVFAALLAARHEGATIADLLPDLFANDIQSIANSAAMPAPLRRLATMLRETSDAGGSAQSYLMNATIARKLLNRLENGGYITLHDRRALTVEPPEPFFTEAQIEREAIKVRDGILGMLHLQRMPTEFDVALATVFYLADRNVTGETFHPSGGLRFERTVTEGELFGKPGQQRLERLKGSVVYLIGEHLRQHLVLLARTFLDEIHVARVVLLTETTQAATDLAAELSDYEAAGRFVVIPTCGDIEGGIDRAMAEYGRPGPVISTPFRPLPDRALSARNGDWSSVLTTAEFEELVEQQITHHFRVARKAGLIEGANVTLVTPPTSARSTSEEFALANFVKTTLHALTATAGAESERTVPHVPVNQVDLTRRARSEEPRTPSEEEEELQRFVNAVLLTSAPLPTPLESRYRARIYRGNAITV
notes: malonyl-CoA reductase (MCR) of Roseiflexus castenholzii DSM 13941, gene Rcas_2929, full length Met1-Val1229; Cloned into pET20b at XhoI and NdeI; also called full-length RfxMCR; wild-type RfxMCR
Regarding B1, in “purified protein”, the Km amounted to 380 ± 80 µM, the kcat amounted to 5.65 ± 0.57 s⁻¹ and the kcat/Km came to 14800 ± 1540 M⁻¹ s⁻¹. For the same protein, the “stoichiometry N” value in series [1] stood at 2.

B2: RfxMCR triple mutant W574A E576A F579A (enzyme, Roseiflexus castenholzii DSM 13941)
chain: B1 chain with W574A, E576A, F579A
notes: malonyl-CoA reductase (MCR) of Roseiflexus castenholzii DSM 13941, gene Rcas_2929, with W574A, E576A and F579A; source: E. coli BL21(DE3), purified following the same procedure as the wild-type protein
On to B2, for which the “stoichiometry N” value in series [1] was determined as 2.

B3: RfxMCR single mutant E576A (enzyme, Roseiflexus castenholzii DSM 13941)
chain: B1 chain with E576A
notes: malonyl-CoA reductase (MCR) of Roseiflexus castenholzii DSM 13941, gene Rcas_2929, with E576A; source: E. coli BL21(DE3), purified following the same procedure as the wild-type protein
B3: the “stoichiometry N” value in series [1] came to 2.

B4: RfxMCR double mutant W574A E576A (enzyme, Roseiflexus castenholzii DSM 13941)
chain: B1 chain with W574A, E576A
notes: malonyl-CoA reductase (MCR) of Roseiflexus castenholzii DSM 13941, gene Rcas_2929, with W574A and E576A; source: E. coli BL21(DE3), purified following the same procedure as the wild-type protein
With B4, the “stoichiometry N” value in series [1] worked out at 2.

B5: RfxMCR-N (Met1-Phe572) (domain or fragment, Roseiflexus castenholzii DSM 13941, UniProt A7NN59 1-572, looked up)
chain: MSTVRRLEGKVALITGGAGNIGEVITRRFLAEGATVVITGRNAEKLAVYRRRLIDEERVAPERVVALRMDGSDIAQVRAGVAQIVHGGTDVPIPLHRIDILVNNAGSAGPRRRLVDIPLEPSEVQPPDSETLAQAVGNLVGITWNLTRAAAPHMPSGSSVINISTIFSRTDYYGRIAYVAPKAALNALSDGLARELGVRGIRVNTIYPGPIESERIYTMFQAMDALKGQPEGDTASGFLRMMRLSRIDQNGEVVKRFPSPVDVANTAVFLASDESAAFTGHAFEVTHGMEVPTESRTTFVSRPGLRSVDATGKVILICAGDQVDDAVALADTLRSCRATVVIGFRDPRALEKASVLLREPRHALAADMYGRPTMTAEARLVRLDPLDPRAAAQTLEQIHAELGAIHHAVVLPGQSRHAPSASLIEVDDQVVERFLHQELVGTIALARELARFWEEYPSGSSMHRVLFVSNPDDQQGNQYSHILRAAVEQLVRVWRHESEYDSVNPAHQQEGQSSAAVWANQLIRYVNNEMANLDFTCAWVAKLLGSDRRIAEINLYLPEEIVGTIGVHNPGF
notes: malonyl-CoA reductase (MCR) of Roseiflexus castenholzii DSM 13941, gene Rcas_2929, residues Met1-Phe572 (SDR1 and SDR2 domains); Cloned into pET28a at XhoI and NcoI; also called N-terminal fragment; SDR1-SDR2
Take B5: the “stoichiometry N” value in series [2] amounted to 2.

The Km is the concentration of substrate that gives half-maximal velocity. One may read the kcat as the number of substrate molecules converted per active site and unit of time at saturation. Broadly, the kcat/Km is the turnover number divided by the Michaelis constant. The stoichiometry N is the number of molecules, sites or subunits per partner or assembly.
